Laboratory results reported in the DeepSol protein solubility set.

assay: soluble on expression in E. coli; label from the status in PepcDB or PDB records

With “MASEVPQVVSLDPTSIPIEYNTPIHDIKVQVYDIKGGCNVEEGLTIFLVNNPGKENGPVKISSKVNDKQVSEFLKDENMEKFNVKLGTSKHFYMFNDNKNSVAVGYVGCGSVADLSEADMKRVVLSLVTMLHDNKLSKLTVVFEINVDKNLFRFFLETLFYEYMTDERFKSTDKNVNMEYIKHLGVYINNADTYKEEVEKARVYYFGTYYASQLIAAPSNYCNPVSLSNAAVELAQKLNLEYKILGVKELEELKMGAYLSVGKGSMYPNKFIHLTYKSKGDVKKKIALVGKGITFDSGGYNLKAAPGSMIDLMKFDMSGCAAVLGCAYCVGTLKPENVEIHFLSAVCENMVSKNSYRPGDIITASNGKTIEVGNTDAEGRLTLADALVYAEKLGVDYIVDIATLTGAMLYSLGTSYAGVFGNNEELINKILQSSKTSNEPVWWLPIINEYRATLNSKYADINQISSSVKASSIVASLFLKEFVQNTAWAHIDIAGVSWNFKARKPKGFGVRLLTEFVLNDALHHHHHH” as the sequence, how does the “soluble on expression in E. coli” value read?
The value was “soluble”.

With “SPAPNQPAAKKTLDSTPAQDKPPQPNSQGKKLASVALLLVLALGAGFAYVHQQQKSEFNNQLQAVRAELKQTRDALNAQLEQTVSKATSQATEITHRAETVLEQQQKSIESLQLAVADIKGRRPNDWLLAEADYLVKLAGRKLFLEHDVETATQLMESADQRIAALNDPSLTALRKAMANDITTLKNIPLIDRDGLVLRLISLQQQIDSLPLANAILPADQPQTSQAVSENIDDWQTNLKNSLKAFADNFITFRSRDGNVIPLLSPTQHFYLRENLQAKLETAIKGVYTEQQTLYRIALDTAAQWSTSFFNPDDKAVQSFNAALAQLAEQQVQVEYPVKLQAQQQLADVINERLRRSVSPLTTGA” as the sequence, how does the “soluble on expression in E. coli” value read?
The value was “not soluble”.

For “CKRNVFNPSIPNRTQFIEDPIANLSIPSKDAAIKVTPYTFEGTSGRVYAHVERFFKFNGEYYIIFFRRYIYDTQAGTYAETAPGGNYHLIKIGKSMKYQEVAVNLNQDHPGLYARYTTIAQGNAYIKGSDIYVPINMADLSKGYYQSSSADLSKWTTNNNTALDVAGLGLTKIEVMDTSRITVGKYTYMYNGGGLQFSINRLEDRMRQAAERYETKMVFNEADFNNLHMFDIGMDTDGDNQIDYRMNPTNYIENDTDYSWIGMQTPHQVWIMPFNDGEKDYLIRFVEYCSGMYNINTLKTERDSAKTKADTALTQALALVSNPNSSKAEIAEACYQSIRNNLEYEVRNYFIGKYESVFKTSTPTAYVVPNYALTHYVIEIVDIQ”, which “soluble on expression in E. coli” value is on record?
Its value is “not soluble”.

For “MGSDKIHHHHHHMQHDDQPLPQTAPHGRVISHLGETDTDDATLLASIKTRLRQHNDRSAAEMEHLLQLVDALWAMELGRFLLRNRGLNANWTHQLVTYQAGTLVQQTTPALEYELFEKTPAVLATRERFGIFRTQLQALLRPGMTLASLPCGWMADVLSLDYGQCPDVRLIGIDLDPQALDGALRLAQQYGLEGQLTLQREDAWAPGEPNSVDVLSSNGLNLYEPDDARVIALYRAFFDRLRPGGTLVASFLTPPPSLCAESPWKLDLIDGAALVLQSQVFIDVVQARWASFRTHAQTRTQLESAGFTDVRFIDDRASIFPTVIARKPMSD”, which “soluble on expression in E. coli” value is on record?
Its value is “not soluble”.

Which “soluble on expression in E. coli” value does the source give for “MAHHHHHHMELGTPNVLPGYDASKSANGSENAKTIISDVNANYNAERKNHTVTHNDEKEGTTHDGGGDEPPQTHSNTERDKEDKIKFEKKKKKSDKLKKEREKEIVVAYWLKGIVKILNAGLKNGDIKGSNFIGKKIAEVLKKVVEISHWNNVYDLIEIIKYLGKEIIRNNKMYFIIPNIIRRVLTIIRTEHFKQLYLYNNNYVDNLNKNNNFLVDKNTNKCINSKYVYEREIKNFEQSFSFYFENNSKKNTYHIPATNTLRHSIIEGITELIADIDTSWGETEQRTSYDLFMENDVILTMGYSVGVEKFLKNINKKKDGISVIVVGGDINRNGFRMAQLLSEDGVDTTYISDSAVFAVIPKVTKVVLGSVAVSSSGGVITKIGGYNIACSAQFNSKPVTIVLPLFKLINDPFYDPIRQNELQPGPSMIYNDADNLYVRIPKYDYIPEHLITLYITEIGPVDSFQLYNITKRTYHPDDLDLSFD” here?
The value was “not soluble”.

With “MNLKDLLAHRENLMDSAKRARSAITDDMDPADAAQAVENVKSIISEIESTDEAIAARRGVSDVTQKLKGLTITERGTENDSAASRSLGEHFVKAAGDRLKNQAAGAHIEYSVPEYQVKEDAHSSPKDLVEGWGTFYQR” as the sequence, how does the “soluble on expression in E. coli” value read?
Its value is “soluble”.

With “MGSDKIHHHHHHMSNSLKASTTGLGIVDKARKRLGWTKTSTACWWQDAHTSRATLRRFWQGDRIQQEIFIAICQAVGINDWQNIAEIPNADFEETSTQYLDWDDAPDLESFYGRNQELAQLEEWILGDRCKLIIITGIAGIGKTALALALADLLQLKFDGLIWKTLHSVPSLVPLLDGLLHTFKQTPVDDIPSDTAKLIHHLQQRRCLLILDGLDESEKHYHQFIQQLSRAHHQSCIILTSREQPNIIESNTKTVRSLTLTGLPKDDAVKLLQARGFTGKEIGLSPLIQLYRGNPLALKLVTPLIQSVFGGNIAAFLSQNTIVIGDRLRAILKQQFEQLSDLEQNILYWLAIWQQPISFSRLQTHLLISLDPATVLDAIVSLERRSLLEKWICSDAPAFTLQPLVMKIATDELVERATQEIIQVMQSRDIADFKVLRTHWLLRPGSDDIVGDRILHQLQEKLWQIYGANLVQNLQQILLLLNDKSPLTIGYIACNITTIITKGV” as the sequence, how does the “soluble on expression in E. coli” value read?
Its value is “not soluble”.

With “MGSDKIHHHHHHMDPLSSSDPARLASEQRRLRLQVLGLNTVEAEATFDRIARLAASFTQSPLAMVNFINDERQMFRGMYVPSGSPDDKVSPESGGIAFDLSNLSREAPGDYGFCPHVVAQGSQLALDDVFDYPRFKGNPLVNDLGVRSYLGTPLRDNTGMILGTVCVADMKPRTWDRGLREGMQELTETLLSDFKLRDSLLAQQQELFAVFDGAPFPIMLTEGPDHLLRYANGKQGSAFGLVPQFSPGRHVLPGLEAIGVFGAMDDAFHTGQAATLARASIQTYDSHTLQDFNFLCTPVRTSPAAPISGVLTVAMNTTGQDFAGSEQRAFAANVQERFERLGAGGLPGGMPGQRAESAGYRG” as the sequence, how does the “soluble on expression in E. coli” value read?
Its value is “not soluble”.

For “MGSDKIHHHHHHMKVLELKNVSVRYKTGEKTVNAVENVSFHLEKGETLGLVGESGCGKSTLGFSIMRLLPKGTKIDGSIKIEGIDISSLSDEEMRQIRGSKVAMIFQDPMTSLNPILRIEDHFVEMILTHRPELSKEDARELAAKALEDVGINRNRLKDYPFQFSGGMRQRVMIALSIVLNPAVLIADEPTTSLDVIVQAQIMELLEKLTKEHRTAMILITHDMGLVAEAADRIGVMYAGHLVELASKERIFTNPLHPYTVGLLRSIPNTDVNDKELRYIPGSPPDLSNPPEGCRFAPRCEKAMKICWEKEPPEFEIDGTRVKCWLYGGDQNGTD”, which “soluble on expression in E. coli” value is on record?
Its value is “not soluble”.

Which “soluble on expression in E. coli” value does the source give for “PKTLYDKIWDAHLAHEAEDGTCLLYIDRHLVHEVTSPQAFEGLRMAGRKVRAPEKTIAVPDHNVPTTEGREDPAQMTEESRIQVQALDKNAREFGVHYYPVDDIRQGIVHIVGPEQGWTLPGMTVVCGDSHTATHGAFGALAHGIGTSEVEHVLATQTLIQKKSKN” here?
Its value is “not soluble”.

With “MKKSHYSVIIVGGGQAGLAISYLLKQESIDHVIFEKNQIGHAWRNQRWDSFCLVTPNWQCRLPGFPYAGGDDQGFMLKDEIVQYLEDYAASFQAPILEGVEVSKLSQRTDAFEVITSQGIYTADQVVVATGGYHTPKIAAIAKKLPPHIVQLHSVDYKNPETLPDRILLVGTGQSGCQIAEDLHLAGKTVHLATGSAPRSPRRYRGRDVVEWLELMGHYDLPIDEHPQKEMVRHKTNHYLTGRDGGREIDLRQFALEGMHLYGRLKDIDGNQILFADNLKENLDQADATAARIKQSIDEYIAKNQLDAPIEAPYQPVWEPTSIPLTLNIDEIDAVIWSTGFNFNYAWVDVPVFNSMGEPLHNRGVTNVAGLYFLGLPWLYTWGSGRFSGVARDAEYLAEKIRETLPANQINPCTVALEHHHHHH” as the sequence, how does the “soluble on expression in E. coli” value read?
The value was “not soluble”.

With “AQNSTVKINGLTLVQSSNQLNEAITGVTIDLKKAEIGKIVTLTVDDNKDQLTGLINEFIKQYNDTMTFLTNLTGYNNETKQGGVFQGDPQFRNLKLNLNKWATTPLANQEGPIRSLADLGIITNKQGLLEIKQDKFKTALDNHYKEIGALFAKTAKANDTGINVKSINSTVKSGTYDVVLTEFTPGVSMSGTIGGLSAISSDGITLTGSADLSGLSINVFSGSAGSRGQITVTDGIAVQLSSLLDAYIEIKGDLEQRKDQLNNQVKQLNKIQNEIDIRRKSIETRYLKQFTALDTLLSQLQS” as the sequence, how does the “soluble on expression in E. coli” value read?
The value was “soluble”.

With “MAHHHHHHMPINPEYIPLPKSKEMFAIASWRDSPGLNATPAAHPGVSGSPHLASLDALRNGKGMAGMHAAATTTTTTTNTVTAAGGSLLPPAVQPAEDSKDAAKSKAPLTVAAGKKKKRKPASGATTSTASVAGSGVRSDDVDDFFVHILLPSCVSMQTLEFELQAQTTPLKSIEVGLPKVLFPRKPVGGAGGDASPPTTTALAPAVASAKIVSSPSCAPAVNPTNNELSLPLMRLPPADLPEPAPSESSCAAPPSASAAAAAHVNGDGTASAAAASGEHHGGEYQVSLLFAEKAEAEKTVTFVQRRWPTAAVSLASRSRSVLNATLVLKGMPNQAKTETVLTEMQNLPHTPSYVRLLRSERGVFKGVVFVKYANCEIAEECKLRLEKFVLGSRPLKVEFKKKSTAAASVSAAVIESKRSLQELVRELRVSAEHEGFHLSRSDVAKEALKVLKQLCQSYGLLFDMNDQQVTVRRVLGSNGIGSEKPSPALRPQSMAPAWAPATPAPLRPMDFKGISHWKDIRSQASTLGIMRPLGPEDGKPAFSAGRGRPL” as the sequence, how does the “soluble on expression in E. coli” value read?
Its value is “not soluble”.

With “MGSDKIHHHHHHMAKVFLKRMNRRISGGHLWIFYNEILKVEGEYENGSVVDVFRPDGSFFGKGYINDNSKIRVRILTWKNEVIDRNFIKNRIESALKRKKKLVKETTAFRVVHSEGDFLPGLIVDLFGDYLVFQITTLGMEKMKDWILDSLVEIFKPKGIYEKSEGTFREKEGLDNREEWVYGKGPELIEFEMNGFKFLADTRGQKTGFFLDQRENARMVMDLAEGKVCLDVFSYTGNFAVHLLKGGAKHVTLVDYSERALEVAREILKLNGFDSSRYDLLPGNAFDILKSFDREGRKYDLVVLDPPSFAKSSSNLESARRGYKEINLRAMRILKKPGVLVTSSCTQIVSEELFREILFDASFDTKTSLTVLRRGGQPPDHPVLMNVPETQYLKFYILQVDKR” as the sequence, how does the “soluble on expression in E. coli” value read?
Its value is “not soluble”.

With “MDPELLRQRTAFQKHAATTMAVQNKPTTAPNSHTTYSSEAAKAKKKKSSGPAQNLSKLPDFNNSVSNANALSNATNFSTMAKIVDYMKKRHLNNQQWPLTLQEILDELQIFDLSKRSLAFLQEALPNNPRLIMESEKFAFRPPYKIKGKTSLVAVARKHYQDGKGGILVSDLAECVANYDALLQQVSSEVIVVPTQVNKKKDRVVFYNDKEFTFPELEDDFKALWRHVSVDHLDEKKIEEYLQKKGLDAMKDLTPKVRMQAPLKRKAAKRRFNQKVQNEHMDGVLEDYE” as the sequence, how does the “soluble on expression in E. coli” value read?
The value was “soluble”.

Which “soluble on expression in E. coli” value does the source give for “MSLSNTVHVFFGNKDSKVQVFKDKGTNQFANQVNLFMGDYLDTYFNRDKDTDLDKLKKYYGSGIDIKGQESRDIDMKLEHVSLVEIKSSVAVYDINYQIKDGDNWKSVLARINVPYKEKDGRYYVSDLPYYTDQSSYVADTVKGNSKLPTQSEVEGLSNKKLSGLKDYIVAFFKAYTSGDNSQMAPFSGAVSPLKSYEFEELDYAYFIKHKHSIIAVVQVTFKNEFGVKHQENFTLEVTESKQTSSYYVKSMKHGIDEDCRKEMKMDEGHHHHHH” here?
Its value is “soluble”.

Which “soluble on expression in E. coli” value does the source give for “MGSDKIHHHHHHTVDNRHDPLESMNRAVFSFNEKLDEVVLEPVARGYQRFIPSPVRMIVGNFFSNLDDVVVAANSLLQLKFMDAMASTTRIVINTTFGMLGAIDLASDISQVSDIDISKRNEDFGQTLGFYGIGSGPYLVLPILGPSTVRDTVGIGVDSTIFHPARAIYTSFDLLTVRLPVTTVEFIDRREQLLDLDKTLEEASLDKYEFVRDAYLQRRESLIKNDGAASEEEPVNFDEEEIIIDD” here?
Its value is “not soluble”.
